Laboratory results: the supplement of paper PMC5998384

Tested on: HeLa Kyoto
Test: melting temperature (median over replicates), in situ; higher = more thermally stable
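Further: HeLa Kyoto cells synchronized by double thymidine or nocodazole block, proteins quantified by TMT10plex mass spectrometry, three independent biological replicates.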

Chain of MGST2 (chain, as listed by the source): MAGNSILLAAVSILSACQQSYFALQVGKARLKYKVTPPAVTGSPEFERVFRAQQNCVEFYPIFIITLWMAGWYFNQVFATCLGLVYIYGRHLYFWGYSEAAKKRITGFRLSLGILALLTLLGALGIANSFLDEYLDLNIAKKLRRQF

Substance	melting temperature (cell cycle stage: G1/S) [°C]	melting temperature (cell cycle stage: mitosis) [°C]
MFAKGKGSAVPSDGQAREKLALYVYEYLLHVGAQKSAQTFLSEIRWEKNITLGEPPGFLHSWWCVFWDLYCAAPERRDTCEHSSEAKAFHDYSAAAAPSPVLGNIPPNDGMPGGPIPPGFFQGPPGSQPSPHAQPPPHNPSSMMGPHSQPFMSPRYAGGPRPPIRMGNQPPGGVPGTQPLLPNSMDPTRQQGHPNMGGSMQRMNPPRGMGPMGPGPQNYGSGMRPPPNSLGPAMPGINMGPGAGRPWPNPNSANSIPYSSSSPGTYVGPPGGGGPPGTPIMPSPADSTNSSDNIYTMINPVPPGGSRSNFPMGPGSDGPMGGMGGMEPHHMNGSLGSGDIDGLPKNSPNNISGISNPPGTPRDDGELGGNFLHSFQNDNYSPSMTMSV [SSBP3]	52.4	–
MGDEKDSWKVKTLDEILQEKKRRKEQEEKAEIKRLKNSDDRDSKRDSLEEGELRDHRMEITIRNSPYRREDSMEDRGEEDDSLAIKPPQQMSRKEKAHHRKDEKRKEKRRHRSHSAEGGKHARVKEKEREHERRKRHREEQDKARREWERQKRREMAREHSRRERDRLEQLERKRERERKMREQQKEQREQKERERRAEERRKEREARREVSAHHRTMREDYSDKVKASHWSRSPPRPPRERFELGDGRKPGEARPAPAQKPAQLKEEKMEERDLLSDLQDISDSERKTSSAESSSAESGSGSEEEEEEEEEEEEEGSTSEESEEEEEEEEEEEEETGSNSEEASEQSAEEVSEEEMSEDEERENENHLLVVPESRFDRDSGESEEAEEEVGEGTPQSSALTEGDYVPDSPALSPIELKQELPKYLPALQGCRSVEEFQCLNRIEEGTYGVVYRAKDKKTDEIVALKRLKMEKEKEGFPITSLREINTILKAQHPNIVTVREIVVGSNMDKIYIVMNYVEHDLKSLMETMKQPFLPGEVKTLMIQLLRGVKHLHDNWILHRDLKTSNLLLSHAGILKVGDFGLAREYGSPLKAYTPVVVTLWYRAPELLLGAKEYSTAVDMWSVGCIFGELLTQKPLFPGKSEIDQINKVFKDLGTPSEKIWPGYSELPAVKKMTFSEHPYNNLRKRFGALLSDQGFDLMNKFLTYFPGRRISAEDGLKHEYFRETPLPIDPSMFPTWPAKSEQQRVKRGTSPRPPEGGLGYSQLGDDDLKETGFHLTTTNQGASAAGPGFSLKF [CDK11B]	46.5	50.3
MGLELFLDLVSQPSRAVYIFAKKNGIPLELRTVDLVKGQHKSKEFLQINSLGKLPTLKDGDFILTESSAILIYLSCKYQTPDHWYPSDLQARARVHEYLGWHADCIRGTFGIPLWVQVLGPLIGVQVPKEKVERNRTAMDQALQWLEDKFLGDRPFLAGQQVTLADLMALEELMQPVALGYELFEGRPRLAAWRGRVEAFLGAELCQEAHSIILSILEQAAKKTLPTPSPEAYQAMLLRIARIP [GSTT2]	54.9	55.1
MGST2	54.3	–
MLLSIGMLMLSATQVYTILTVQLFAFLNLLPVEADILAYNFENASQTFDDLPARFGYRLPAEGLKGFLINSKPENACEPIVPPPVKDNSSGTFIVLIRRLDCNFDIKVLNAQRAGYKAAIVHNVDSDDLISMGSNDIEVLKKIDIPSVFIGESSANSLKDEFTYEKGGHLILVPEFSLPLEYYLIPFLIIVGICLILIVIFMITKFVQDRHRARRNRLRKDQLKKLPVHKFKKGDEYDVCAICLDEYEDGDKLRILPCSHAYHCKCVDPWLTKTKKTCPVCKQKVVPSQGDSDSDTDSSQEENEVTEHTPLLRPLASVSAQSFGALSESRSHQNMTESSDYEEDDNEDTDSSDAENEINEHDVVVQLQPNGERDYNIANTV [RNF13]	57.4	64.3
MRSGEELDGFEGEASSTSMISGASSPYQPTTEPVSQRRGLAGLRCDPDYLRGALGRLKVAQVILALIAFICIETIMACSPCEGLYFFEFVSCSAFVVTGVLLIMFSLNLHMRIPQINWNLTDLVNTGLSAFLFFIASIVLAALNHRAGAEIAAVIFGFLATAAYAVNTFLAVQKWRVSVRQQSTNDYIRARTESRDVDSRPEIQRLDTFSYSTNVTVRKKSPTNLLSLNHWQLA [CMTM4]	58.1	–
MSLCSPTHSAEMSLFLQGPEEMLPLSSEGSEMGSEKEQSPEPHLPEEGEGGKPWRVDDSEGSWIPPGEKEHGQESLSDELQETHPKKPWQKVTVRARELGDPIAHPRHEADEKPFICAQCGKTFNNTSNLRTHQRIHTGEKPYKCSECGKSFSRSSNRIRHERIHLEEKHYKCPKCQESFRRRSDLTTHQQDHLGKRPYRCDICGKSFSQSATLAVHHRTHLEPAPYICCECGKSFSNSSSFGVHHRTHTGERPYECTECGRTFSDISNFGAHQRTHRGEKPYRCTVCGKHFSRSSNLIRHQKTHLGEQAGKDSS [ZNF691]	54.9	53.1
MSLPPEKASELKQLIHQQLSKMDVHGRIREILAETIREELAPDQQHLSTEDLIKALRRRGIIDDVMKELNFVTDSVEQELPSSPKQPICFDRQSTLKKTNIDPTRRYLYLQVLGGKAFLEHLQEPEPLPGQVCSTFTLCLHYRNQRFRSKPVPCACEPDFHDGFLLEVHRESLGDGTRMADSTTMLSISDPIHMVLIKTDIFGETTLVASYFLEWRSVLGSENGVTSLTVELMGVGTESKVSVGILNIKLEMYPPLNQTLSQEVVNTQLALERQKTAEKERLFLVYAKQWWREYLQIRPSHNSRLVKIFAQDENGINRPVCSYVKPLRAGRLLDTPRQAARFVNVLGYERAPVIGGGGKQEQWCTLLAFLCRNKGDCEDHANLLCSLLLGYGLEAFVCVGTKAKGVPHAWVMTCGTDGAITFWESLTGHRYIHKPTNPDEPPVAEQPKPLYPYRTIGCVFNHQMFLGNCQPSDAVETCVFDLNDESKWKPMSEEAIKSVCAPGATTSLPPFPPLCASTIDASVTSNEIEMQLRLLVSEHRKDLGLTTVWEDQLSYLLSPALASYEFERTTSISAGNEEFQDAIRRAVPDGHTFKGFPIHFVYRNARRAFATCLRSPFCEEIICCRGDQVRLAVRVRVFTYPESACAVWIMFACKYRSVL [CEP76]	53.7	–
MSLRCGDAARTLGPRVFGRYFCSPVRPLSSLPDKKKELLQNGPDLQDFVSGDLADRSTWDEYKGNLKRQKGERLRLPPWLKTEIPMGKNYNKLKNTLRNLNLHTVCEEARCPNIGECWGGGEYATATATIMLMGDTCTRGCRFCSVKTARNPPPLDASEPYNTAKAIAEWGLDYVVLTSVDRDDMPDGGAEHIAKTVSYLKERNPKILVECLTPDFRGDLKAIEKVALSGLDVYAHNVETVPELQSKVRDPRANFDQSLRVLKHAKKVQPDVISKTSIMLGLGENDEQVYATMKALREADVDCLTLGQYMQPTRRHLKVEEYITPEKFKYWEKVGNELGFHYTASGPLVRSSYKAGEFFLKNLVAKRKTKDL [LIAS]	52.1	53.4
MSSHKGSVVAQGNGAPASNREADTVELAELGPLLEEKGKRVIANPPKAEEEQTCPVPQEEEEEVRVLTLPLQAHHAMEKMEEFVYKVWEGRWRVIPYDVLPDWLKDNDYLLHGHRPPMPSFRACFKSIFRIHTETGNIWTHLLGFVLFLFLGILTMLRPNMYFMAPLQEKVVFGMFFLGAVLCLSFSWLFHTVYCHSEKVSRTFSKLDYSGIALLIMGSFVPWLYYSFYCSPQPRLIYLSIVCVLGISAIIVAQWDRFATPKHRQTRAGVFLGLGLSGVVPTMHFTIAEGFVKATTVGQMGWFFLMAVMYITGAGLYAARIPERFFPGKFDIWFQSHQIFHVLVVAAAFVHFYGVSNLQEFRYGLEGGCTDDTLL [ADIPOR1]	55.6	–
MWTLGRRAVAGLLASPSPAQAQTLTRVPRPAELAPLCGRRGLRTDIDATCTPRRASSNQRGLNQIWNVKKQSVYLMNLRKSGTLGHPGSLDETTYERLAEETLDSLAEFFEDLADKPYTFEDYDVSFGSGVLTVKLGGDLGTYVINKQTPNKQIWLSSPSSGPKRYDWTGKNWVYSHDGVSLHELLAAELTKALKTKLDLSSLAYSGKDA [FXN]	53	53.3
RAPGEF6	47.3	48.9
